Assay results taken from patent US20210054355A1 (NEW YORK UNIVERSITY, published 2021).
Substitutions are numbered along the chain they refer to. Names may count otherwise.

T1: FGF23 C-terminal tail peptide (FGF23^C-tail) (human)
T1 construct: The peptide may have been shorter, e.g. S180 to S205
T1 peptide: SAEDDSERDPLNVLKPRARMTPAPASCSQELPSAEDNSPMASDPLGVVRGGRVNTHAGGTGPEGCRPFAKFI

B1: FGF23^ΔHBS (FGF23^WT carrying R140A/R143A) (ligand)
chain: YPNASPLLGSSWGGLIHLYTATARNSYHLQIHKNGHVDGAPHQTIYSALMIRSEDAGFVVITGVMSRRYLCMDFRGNIFGSHYFDPENCRFQHQTLENGYDVYHSPQYHFLVSLGAAKAAFLPGMNPPPYSQFLSRRNEIPLIHFNTPIPRQHTQSAEDDSERDPLNVLKPRARMTPAPAS
B2: αKlotho^ecto/ΔRBA (soluble αKlotho ectodomain lacking L544 to T565 of the KL2 β1α1 loop) (receptor)
chain: EPGDGAQTWARVSRPPAPEAAGLFQGTFPDGFLWAVGSAAYQTEGGWQQHGKGASIWDTFTHHPLAPPGDSRNASLPLGAPSPLQPATGDVASDSYNNVFRDTEALRELGVTHYRFSISWARVLPNGSAGVPNREGLRYYRRLLERLRELGVQPVVTLYHWDLPQRLQDAYGGWANRALADHFRDYAELCFRHFGGQVKYWITIDNPYVVAWHGYATGRLAPGIRGSPRLGYLVAHNLLLAHAKVWHLYNTSFRPTQGGQVSIALSSHWINPRRMTDHSIKECQKSLDFVLGWFAKPVFIDGDYPESMKNNLSSILPDFTESEKKFIKGTADFFALCFGPTLSFQLLDPHMKFRQLESPNLRQLLSWIDLEFNHPQIFIVENGWFVSGTTKRDDAKYMYYLKKFIMETLKAIKLDGVDVIGYTAWSLMDGFEWHRGYSIRRGLFYVDFLSQDKMLLPKSSALFYQKLIEKNGFPPLPENQPLEGTFPCDFAWGVVDNYIQVDTTLSQFTDKKRKSYCVDFAAIQPQIALLQEMHVTHFRFSLDWALILPLGNQSQVNHTILQYYRCMASELVRVNITPVVALWQPMAPNQGLPRLLARQGAWENPYTALAFAEYARLCFQELGHHVKLWITMNEPYTRNMTYSAGHNLLKAHALAWHVYNEKFRHAQNGKISIALQADWIEPACPFSQKDKEVAERVLEFDIGWLAEPIFGSGDYPWVMRDWLNQRNNFLLPYFTEDEKKLIQGTFDFLALSHYTTILVDSEKEDPIKYNDYLEVQEMTDITWLNSPSQVAVVPWGLRKVLNWLKFKYGDLPMYIISNGIDDGLHAEDDQLRVYYMQNYINEALKAHILDGINLCGYFAYSFNDRTAPRFGLYRYAADQFEPKASMKHYRKIIDSNGFPGPETLERFCPEEFTVCTECSFFHTRKS
notes: the mature protein is E34 to S959; Expressed and purified like the wild type (pEF1α/myc-His A); also called α-Klotho^ecto/deltaRBA; αKlotho^ecto/ΔRBA mutant
B3: FGFR1c^ecto/ΔHBS (FGFR1c^ecto carrying K160Q/K163Q) (receptor)
chain: DNTKPNRMPVAPYWTSPEQMEQKLHAVPAAKTVKFKCPSSGTPNPTLRWLKNGKEFKPDHRIGGYKVRYATWSIIMDSVVPSDKGNYTCIVENEYGSINHTYQLDVVERSPHRPILQAGLPANKTVALGSNVEFMCKVYSDPQPHIQWLKHIEVNGSKIGPDNLPYVQILKTAGVNTTDKEMEVLHLRNVSFEDAGEYTCLAGNSIGLSHHSAWLTVLEALEER
notes: also called FGFR1c^ΔHBS
B4: FGFR1c^ecto/ΔRRBS (FGFR1c^ecto carrying A171D) (receptor)
chain: B3 chain with Q19K, Q22K, A30D
notes: also called FGFR1^ΔRRBS
B5: FGFR1c^ecto/ΔSLBS (FGFR1c^ecto carrying I203E) (receptor)
chain: B3 chain with Q19K, Q22K, I62E
notes: also called FGFR1c^ΔSLBS
B6: FGFR1c^ecto/ΔHBS′ (FGFR1c^ecto carrying K207Q/R209Q) (receptor)
chain: B3 chain with Q19K, Q22K, K66Q, R68Q
notes: also called FGFR1c^ΔHBS′
B7: FGFR1c^ecto/ΔSLBS′ (FGFR1c^ecto carrying V221D) (receptor)
chain: B3 chain with Q19K, Q22K, V80D
notes: also called FGFR1c^ΔSLBS′
B8: Soluble human α-Klotho ectodomain (αKlotho^ecto) (receptor)
chain: EPGDGAQTWARVSRPPAPEAAGLFQGTFPDGFLWAVGSAAYQTEGGWQQHGKGASIWDTFTHHPLAPPGDSRNASLPLGAPSPLQPATGDVASDSYNNVFRDTEALRELGVTHYRFSISWARVLPNGSAGVPNREGLRYYRRLLERLRELGVQPVVTLYHWDLPQRLQDAYGGWANRALADHFRDYAELCFRHFGGQVKYWITIDNPYVVAWHGYATGRLAPGIRGSPRLGYLVAHNLLLAHAKVWHLYNTSFRPTQGGQVSIALSSHWINPRRMTDHSIKECQKSLDFVLGWFAKPVFIDGDYPESMKNNLSSILPDFTESEKKFIKGTADFFALCFGPTLSFQLLDPHMKFRQLESPNLRQLLSWIDLEFNHPQIFIVENGWFVSGTTKRDDAKYMYYLKKFIMETLKAIKLDGVDVIGYTAWSLMDGFEWHRGYSIRRGLFYVDFLSQDKMLLPKSSALFYQKLIEKNGFPPLPENQPLEGTFPCDFAWGVVDNYIQVDTTLSQFTDLNVYLWDVHHSKRLIKVDGVVTKKRKSYCVDFAAIQPQIALLQEMHVTHFRFSLDWALILPLGNQSQVNHTILQYYRCMASELVRVNITPVVALWQPMAPNQGLPRLLARQGAWENPYTALAFAEYARLCFQELGHHVKLWITMNEPYTRNMTYSAGHNLLKAHALAWHVYNEKFRHAQNGKISIALQADWIEPACPFSQKDKEVAERVLEFDIGWLAEPIFGSGDYPWVMRDWLNQRNNFLLPYFTEDEKKLIQGTFDFLALSHYTTILVDSEKEDPIKYNDYLEVQEMTDITWLNSPSQVAVVPWGLRKVLNWLKFKYGDLPMYIISNGIDDGLHAEDDQLRVYYMQNYINEALKAHILDGINLCGYFAYSFNDRTAPRFGLYRYAADQFEPKASMKHYRKIIDSNGFPGPETLERFCPEEFTVCTECSFFHTRKS
notes: also called wild-type αKlotho^ecto; soluble αKlotho

Assays:
[1] = biological target: B8; experiment: SEC-MALS, 1:1:1 mixture with FGFR1c^ecto and αKlotho^ecto
Description: (§1) A Superdex 200 10/300 GL column (GE Healthcare, USA) was placed in-line between the HPLC pump (Waters 1525) and the HPLC UV (Waters 2998 Photodiode Array), laser light scattering, and refractive index detectors. Light scattering and refractive index detectors were calibrated following the manufacturer's guidelines. The refractive index increment (dn/dc) in which n is the refractive index and c is the concentration of the mixture of DDM and CHS in 20 mM Tris-HCl pH 8.0 buffer containing 300 mM NaCl, was determined offline using an Optilab T-rEX refractive index detector. Monomeric bovine serum albumin (#23210, Thermo Scientific, USA) was used as part of routine data quality control.
(§2) 60 ml or more of 25 mM HEPES pH 7.5 buffer containing 150 mM NaCl were passed through the system at a flow rate of 0.5 mL/min to equilibrate the Superdex 200 10/300 GL column and establish stable baselines for light scattering and refractive index detectors. Purified αKlotho^ecto, FGER1c^ecto (wild type or mutant), and FGF23 (wild type or mutant) proteins were mixed at a molar ratio of 1:1:1 and concentrated to 12.5 μM. 50 μl of protein samples with a molar equivalent of a heparin hexasaccharide (#H006, Iduron, Manchester, U.K.) were injected onto the gel filtration column, and the column eluent was continuously monitored for 280 nm absorbance, laser light scattering, and refractive index. […]

[2] = biological target: B6; experiment: SEC-MALS of the 1:1:1 mixture with αKlotho^ecto and heparin hexasaccharide; the two proteins are seen together in the ternary complex [panel B]
Description: as §1, §2

[3] = biological target: B3; experiment: as above
Description: as §1, §2

[4] = biological target: T1, FGF23 C-terminal tail peptide …; experiment: fluorescence dye-based thermal shift assay (SYPRO Orange), 1:1 mixture; over the peak of αKlotho^ecto/ΔRBA alone the sheet prints 51 [right]
Description: (§3) Fluorescence Dye-Based Thermal Shift Assay: SYPRO Orange dye (#S6650, ThermoFisher Scientific, USA) was used as the fluorescent probe. 15 μl of 20 μM solutions of protein samples (wild-type and mutated forms of FGF23; αKlotho^ecto or αKlotho^{ecto/ΔRBA} alone; 1:1 mixtures of αKlotho^ecto or αKlotho^{ecto/ΔRBA} with FGF23 C-terminal tail peptide) were mixed with 5 μl of working dye solution (1:25 dilution) in duplicate in PCR strips. A temperature gradient from 4° C. to 100° C. at 1° C./minute increment was carried out with a CFX96 Touch™ Real-Time PCR Detection System (Bio-Rad, USA). Fluorescence was recorded as a function of temperature in real time. The melting temperature (Tm) was calculated with StepOne software v2.2 as the maximum of the derivative of the resulting SYPRO Orange fluorescence curves.

[5] = biological target: B8; experiment: SEC-MALS, 1:1:1 mixture with FGF23 and αKlotho^ecto
Description: as §1
60 ml or more of 25 mM HEPES pH 7.5 buffer containing 150 mM NaCl were passed through the system at a flow rate of 0.5 mL/min to equilibrate the Superdex 200 10/300 GL column and establish stable baselines for light scattering and refractive index detectors. Purified αKlotho^ecto, FGER1c^ecto (wild type or mutant), and FGF23 (wild type or mutant) proteins were mixed at a molar ratio of 1:1:1 and concentrated to 12.5 μM. 50 μl of protein samples with a molar equivalent of a heparin hexasaccharide (#H006, Iduron, Manchester, U.K.) were injected onto the gel filtration column, and the column eluent was continuously monitored for 280 nm absorbance, laser light scattering, and refractive index. In a separate set of experiments, 50 μl of 1:1:1 FGF23-FGFR1c^ecto-αKlotho^ecto ternary complex at 12.5 μM concentration was mixed with heparin hexasaccharide at molar ratios of 1:0.25, 1:0.5, 1:1, or 1:2, and the mixtures were injected onto the gel filtration column. 50 μl of ternary complex without added heparin hexasaccharide were run as a control. In yet another set of experiments, αKlotho^ecto (wild type or mutant) and FGER1c^ecto were mixed at a molar ratio of 1:1, and 50 μl of concentrated protein mixtures were injected onto the gel filtration column. 50 μl of concentrated αKlotho^ecto (wild type or mutant) alone were run as a control in these experiments. The analyses were performed at ambient temperature. Data were collected every second at a flow rate of 0.5 ml/min.

[6] = biological target: T1, FGF23 C-terminal tail peptide …; experiment: fluorescence dye-based thermal shift assay (SYPRO Orange), 1:1 mixture; over the peak of αKlotho^ecto alone the sheet prints 48 [left]
Description: as §3

| binding result [5] | Binder | further results |
| --- | --- | --- |
| – | B1 | binding result [1]: binds; binding result [2]: binds; binding result [3]: binds |
| – | B2 | melting temperature (peak of derivative fluorescence) of the mixture [4]: 57.5 °C |
| binds | B3 | – |
| binds | B4 | – |
| binds | B5 | – |
| binds | B6 | – |
| binds | B7 | – |
| – | B8 | melting temperature (peak of derivative fluorescence) of the mixture [6]: 54 °C |
